Data reported in the supplement of paper PMC10567573.

B1: TRIM63 (parent)
chain: QEKKLSFIEALIQQYQEQLDKSTK

Variants of: B1
Test: protein stability index of a GFP-peptide fusion (GPS, HEK-293T) (PSI 1-6); higher = more stable
Details: c terminus: a fixed tail appended
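Also: lentivirally expressed fusions sorted by FACS into six bins by GFP to DsRed ratio, PSI derived from sequencing read proportions per bin multiplied by bin number.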

First: QEKKLSFIESLIQQYQEQLDKSTK [A10S]
Second: QEKKLSFIEGLIQQYQEQLDKSTK [A10G]
The protein stability index of the first is lower: 2.89 for the first, 3.33 for the second.

First: QEKKLSFIEQLIQQYQEQLDKSTK [A10Q]
Second: QEKKLSFIEELIQQYQEQLDKSTK [A10E]
The protein stability index of the first is lower: 2.89 for the first, 3.42 for the second.

Going from QEKKLSFIEKLIQQYQEQLDKSTK [A10K] to QEKKLSFIEFLIQQYQEQLDKSTK [A10F], the protein stability index falls from 2.39 to 2.28.

First: QEKKLSFIEWLIQQYQEQLDKSTK [A10W]
Second: QEKKLSFIECLIQQYQEQLDKSTK [A10C]
The protein stability index of the first is lower: 1.63 for the first, 2.14 for the second.

First: QEKKLSFIEALIQQKQEQLDKSTK [Y15K]
Second: QEKKLSFIEALIQQCQEQLDKSTK [Y15C]
The protein stability index of the first is higher: 3.9 for the first, 2.1 for the second.

First: QEKKLSFIEALIQQTQEQLDKSTK [Y15T]
Second: QEKKLSFIEALYQQYQEQLDKSTK [I12Y]
The protein stability index of the first is higher: 2.98 for the first, 2.37 for the second.

First: QEKKLSFIEALWQQYQEQLDKSTK [I12W]
Second: QEKKLSFIEALVQQYQEQLDKSTK [I12V]
The protein stability index of the first is lower: 2.11 for the first, 2.6 for the second.

First: QEKKLSFIEALPQQYQEQLDKSTK [I12P]
Second: QEKKLSFIEALNQQYQEQLDKSTK [I12N]
The protein stability index of the first is higher: 5.67 for the first, 4.47 for the second.

Going from QEKKLSFIEALDQQYQEQLDKSTK [I12D] to QEKKLSFIEALEQQYQEQLDKSTK [I12E], the protein stability index falls from 5.25 to 4.39.

First: QEKKLSFIEALAQQYQEQLDKSTK [I12A]
Second: QEKKLSFIEALGQQYQEQLDKSTK [I12G]
The protein stability index of the first is lower: 3.8 for the first, 3.98 for the second.

First: QEKKLSFIEALCQQYQEQLDKSTK [I12C]
Second: QEKKLSFIEALIMQYQEQLDKSTK [Q13M]
The protein stability index of the first is higher: 3.87 for the first, 2.02 for the second.

First: QEKKLSFIEALIRQYQEQLDKSTK [Q13R]
Second: QEKKLSFIEALIAQYQEQLDKSTK [Q13A]
The protein stability index of the first is higher: 2.7 for the first, 2.46 for the second.

QEKKLSFIEALIDQYQEQLDKSTK [Q13D] and QEKKLSFIEALIEQYQEQLDKSTK [Q13E] are the same in protein stability index: 3.54 for the first, 3.54 for the second.

Compared with QEKKLSFIEALIIQYQEQLDKSTK [Q13I], QEKKLSFIEALINQYQEQLDKSTK [Q13N] is higher in protein stability index: 2.02 for the first, 2.79 for the second.

Compared with QEKKLSFIEALIWQYQEQLDKSTK [Q13W], QEKKLSFIEALIGQYQEQLDKSTK [Q13G] is higher in protein stability index: 1.32 for the first, 2.53 for the second.

First: QEKKLSFIEALICQYQEQLDKSTK [Q13C]
Second: QEKKLSFIEALITQYQEQLDKSTK [Q13T]
The protein stability index of the first is lower: 2.67 for the first, 2.74 for the second.

Compared with QEKKLSFIEALIQQYQEQPDKSTK [L19P], QEKKLSFIEALIQQYQEQDDKSTK [L19D] is higher in protein stability index: 3.26 for the first, 3.77 for the second.

Going from QEKKLSFIEALIQQYQEQRDKSTK [L19R] to QEKKLSFIEALIQQYQEQKDKSTK [L19K], the protein stability index rises from 2.91 to 4.08.

First: QEKKLSFIEALIQQYQEQIDKSTK [L19I]
Second: QEKKLSFIEALIQQYWEQLDKSTK [Q16W]
The protein stability index of the first is higher: 3.19 for the first, 1.74 for the second.

Going from QEKKLSFIEALIQQYGEQLDKSTK [Q16G] to QEKKLSFIEALIQQYAEQLDKSTK [Q16A], the protein stability index falls from 3.81 to 2.5.

Going from QEKKLSFIEALIQQYFEQLDKSTK [Q16F] to QEKKLSFIEALIQQYTEQLDKSTK [Q16T], the protein stability index rises from 2.07 to 2.62.

First: QEKKLSFIEALIQQYKEQLDKSTK [Q16K]
Second: QEKKLSFIEALIQQYVEQLDKSTK [Q16V]
The protein stability index of the first is higher: 4.03 for the first, 2.7 for the second.

Compared with QEKKLSFIEALIQQYSEQLDKSTK [Q16S], QEKKLSFIEALIQQYNEQLDKSTK [Q16N] is higher in protein stability index: 2.41 for the first, 3.05 for the second.

Going from QEKKLSFIEALIQQYCEQLDKSTK [Q16C] to QEKKLSFIEALIQQYREQLDKSTK [Q16R], the protein stability index rises from 2 to 2.38.

Going from QEKKLSFIEAQIQQYQEQLDKSTK [L11Q] to QEKKLSFIEADIQQYQEQLDKSTK [L11D], the protein stability index rises from 4.81 to 5.13.

Going from QEKKLSFIEACIQQYQEQLDKSTK [L11C] to QEKKLSFIEAVIQQYQEQLDKSTK [L11V], the protein stability index falls from 4.29 to 2.65.

Going from QEKKLSFIEARIQQYQEQLDKSTK [L11R] to QEKKLSFIEAIIQQYQEQLDKSTK [L11I], the protein stability index falls from 4.58 to 2.02.

First: QEKKLSFIEAPIQQYQEQLDKSTK [L11P]
Second: QEKKLSFIEALIQQYQEQLIKSTK [D20I]
The protein stability index of the first is higher: 5.29 for the first, 1.31 for the second.

First: QEKKLSFIEALIQQYQEQLFKSTK [D20F]
Second: QEKKLSFIEALIQQYQEQLAKSTK [D20A]
The protein stability index of the first is lower: 1.66 for the first, 2.5 for the second.

First: QEKKLSFIEALIQQYQEQLLKSTK [D20L]
Second: QEKKLSFIEALIQQYQEQLYKSTK [D20Y]
The protein stability index of the first is higher: 1.72 for the first, 1.48 for the second.

First: QEKKLSFIEALIQQYQEQLPKSTK [D20P]
Second: QEKKLDFIEALIQQYQEQLDKSTK [S6D]
The protein stability index of the first is lower: 2.46 for the first, 3.02 for the second.

Compared with QEKKLVFIEALIQQYQEQLDKSTK [S6V], QEKKLTFIEALIQQYQEQLDKSTK [S6T] is higher in protein stability index: 2.42 for the first, 2.54 for the second.

Going from QEKKLQFIEALIQQYQEQLDKSTK [S6Q] to QEKKLFFIEALIQQYQEQLDKSTK [S6F], the protein stability index falls from 2.43 to 2.32.

Going from QEKKLPFIEALIQQYQEQLDKSTK [S6P] to QEKKLMFIEALIQQYQEQLDKSTK [S6M], the protein stability index falls from 3.17 to 2.03.

Going from QEKKLSFIEALIQQYQEQLDKSNK [T23N] to QEKKLSFIEALIQQYQEQLDKSWK [T23W], the protein stability index falls from 2.31 to 1.09.

First: QEKKLSFIEALIQQYQEQLDKSAK [T23A]
Second: QEKKLSFIEALIQQYQEQLDKSPK [T23P]
The protein stability index of the first is higher: 2.75 for the first, 2.24 for the second.

Going from QEKKLSFIEALIQQYQEQLDKSGK [T23G] to QEKKLSFIEALIQQYQEQLDKSSK [T23S], the protein stability index falls from 2.77 to 2.7.

Going from QEKKLSFIEALIQQYQEQLDKSEK [T23E] to QEKKLSFIEALIQQYQEQLDKSVK [T23V], the protein stability index rises from 2.57 to 2.67.

First: QEKKLSFIEALIQQYQEQLDKSYK [T23Y]
Second: QEKKLSFIEALIQQYQEQLDKSIK [T23I]
The protein stability index of the first is higher: 2.26 for the first, 1.84 for the second.

Compared with QEKKLSFIEALIQQYQEQLDKSTF [K24F], QEKKLSFIEALIQQYQEQLDKSTN [K24N] is higher in protein stability index: 1.71 for the first, 2.79 for the second.

Compared with QEKKLSFIEALIQQYQEQLDKSTV [K24V], QEKKLSFIEALIQQYQEQLDKSTA [K24A] is lower in protein stability index: 2.31 for the first, 2.25 for the second.

First: QEKKLSFIEALIQQYQEQLDKSTE [K24E]
Second: QEKKLSFIEALIQQYQEQLDKSTW [K24W]
The protein stability index of the first is higher: 3.51 for the first, 1.67 for the second.

First: QEKKLSFIEALIQQYQEQLDKSTR [K24R]
Second: QEKKLSFIEALIQQYQEQLDKSTQ [K24Q]
The protein stability index of the first is lower: 1.84 for the first, 2.68 for the second.

First: QEKKLSFICALIQQYQEQLDKSTK [E9C]
Second: QEKKLSFISALIQQYQEQLDKSTK [E9S]
The protein stability index of the first is lower: 2.05 for the first, 2.68 for the second.

Going from QEKKLSFIAALIQQYQEQLDKSTK [E9A] to QEKKLSFIIALIQQYQEQLDKSTK [E9I], the protein stability index rises from 1.93 to 2.06.

Compared with QEKKLSFIFALIQQYQEQLDKSTK [E9F], QEKKLSFIPALIQQYQEQLDKSTK [E9P] is higher in protein stability index: 1.8 for the first, 3.96 for the second.

Compared with QEKKLSFITALIQQYQEQLDKSTK [E9T], QEKKLSFINALIQQYQEQLDKSTK [E9N] is higher in protein stability index: 1.79 for the first, 2.64 for the second.
